In patent US12448418B2, “Activatable therapeutic peptides and uses thereof” (priority 2022, dated 2025):

How the values were obtained:
[1] = test system: Pseudomonas aeruginosa PAO1; test: Antibacterial assay (MIC) on PAO1, conjugate with and without thrombin pre-cleavage; format: cell-based; details: for fold activity masking in term of antibacterial activity on PAO1: peptide formulated into ABD-AMP conjugate, with and without thrombin pre-cleavage (FIGS. 6A and B)
From the text: (§1) FIG. 3. In vitro evaluation of a model ABD-AMP conjugate. (A) Schematic of (ABD)2-(EEG)6-S12-(D)Pex. (B) Antibacterial assay on PAO1 treated with conjugate with and without thrombin pre-cleavage. OD600 indicates extent of bacteria viability. (C) MTS-based mammalian toxicity evaluation of L929 fibroblasts. (D) Hemolysis assay on mouse red blood cells.
(§2) FIG. 6. Evaluation of activity masking for alternative AMPs and alternative application. Antibacterial assay on PAO1 treated with (A) (ABD)2-(EEG)6-512-POL7080 and (B) (ABD)2-(EEG)6-S12-Colistin with and without thrombin pre-cleavage. OD600 indicates extent of bacteria viability. (C) Evaluation of anticancer activity masking of (ABD)2-(EEG)6-S12-(D)Pex on HepG2 cell line by an MTS assay.
(§3) To verify activity masking of our therapeutics, we evaluated antibacterial activity of our model ABD-AMP conjugate candidate ((ABD)2-(EEG)6-S12-(D)Pex) (FIG. 3A) with and without thrombin pre-activation on Pseudomonas aeruginosa PAO1. […] Overall, formulating AMP as an ABD-AMP conjugate provides an activity mask that can be activated with cleavage of the cleavable linker.
To ensure broad application across different therapeutic peptides, we formulated additional AMPS (POL7080 and colistin) into ABD-AMP conjugates and evaluated the extent of activity masking. […] Given that several AMPS are widely explored for anticancer property capitalizing on higher negative charge of cancer cell membrane, we determined whether ABD-AMP conjugate formulation could be utilized in the cancer context. Cell toxicity assay of (ABD)2-(EEG)6-S12-(D)Pex was performed on human hepatocellular carcinoma cell line HepG2 (FIG. 6C).

[2] = In vivo toxicity evaluation after intravenous treatment; details: for H&E staining of kidney sections, pathological features / H&E staining of spleen sections, pathological features / serum alanine aminotransferase (ALT) level / serum aspartate aminotransferase (AST) level / serum blood nitrogen urea (BUN) level: 10 mg/kg AMP equivalent dose
From the text: FIG. 5. In vivo toxicity evaluation of a model ABD-AMP conjugate. (A) Treatment groups and their body conditions. (B) Serum chemistry analysis of ALT, AST, and BUN. (C) H&E staining of spleen and kidneys sections. Arrows indicate protein casts or apoptotic bodies.
Given a favorable biodistribution profile of ABD-AMP conjugate, we next evaluated if our conjugate could improve safety profile of AMP. We performed toxicity evaluation in mice following intravenous treatments with free AMP (D)Pex or conjugate (ABD)2-(EEG)6-S12-(D)Pex at 5 and 10 mg/kg AMP equivalent doses (FIG. 5A). […] In the spleens of the (D)Pex-treated mice, patches of apoptotic lymphocytes were observed. These pathological features were not observed in mice treated with the conjugate at the equivalent AMP dose. Altogether, our conjugate formulation effectively improves safety profile of AMP following systemic administration.

[3] = test system: human hepatocellular carcinoma cell line HepG2; test: Cell toxicity (MTS) assay on HepG2, anticancer activity masking; format: cell-based
From the text: as §2
To ensure broad application across different therapeutic peptides, we formulated additional AMPS (POL7080 and colistin) into ABD-AMP conjugates and evaluated the extent of activity masking. A 64-fold activity masking was similarly observed for both peptides in term of antibacterial activity on PAO1 (FIGS. 6A and B) confirming robust activity masking of AMPS across diverse secondary structures. Given that several AMPS are widely explored for anticancer property capitalizing on higher negative charge of cancer cell membrane, we determined whether ABD-AMP conjugate formulation could be utilized in the cancer context. Cell toxicity assay of (ABD)2-(EEG)6-S12-(D)Pex was performed on human hepatocellular carcinoma cell line HepG2 (FIG. 6C). […] Altogether, ABD-AMP conjugate platform represents a generalizable platform for formulating diverse activatable therapeutic peptides for different disease applications with aberrant protease microenvironment such as microbial infection and cancer.

mouse red blood cells = details: intact conjugate
From the text: as §1, §3

L929 fibroblasts = details: intact conjugate; MTS
From the text: as §1, §3

[4] = From the text: FIG. 4. In vivo pharmacokinetic and biodistribution evaluations of a model ABD-AMP conjugate. […] (B) Pharmacokinetics of ABD-AMP-Cy7 conjugate and a free AMP-Cy7 control. (C) Experimental timeline for time-lapse biodistribution and conjugate activation evaluation in a PAO1 lung infection model. Quantification of intact and active AMP contents in (D) lungs, (E) kidneys, (F) liver, and (G) spleen at different time points. […] (I) Estimated fold change at equivalent lung exposure of active AMP content.
To study time-lapse biodistribution and conjugate activation in an infection context, we first infected mice with PAO1 via intratracheal instillation (IT) (FIG. 4C). The conjugate or free AMP control were intravenously (IV) administered 6 h post infection. The mice were euthanized at different time points, and organs were harvested and homogenized for quantification of conjugate and released AMP contents via SDS-PAGE analysis. […] Alternatively, when estimating at the equivalent lung exposure of active AMP, our conjugate reduced exposure of active AMP to kidneys, liver, and spleen by 3.1, 9.3, and 4.2 fold, respectively (FIG. 4I).

Molecule: 6-methyloctanoic acid-Dab-Thr-Dab-(Dab-Dab-(D-Leu)-Leu-Dab-Dab-Thr) (SEQ ID NO: 84) [colistin]
- fold activity masking in term of antibacterial activity on PAO1 [1]: 64 fold

Molecule: CC[C@@H](C)[C@@H](NC(=O)CN)C(=O)NCC(=O)N[C@H](CCCCN)C(=O)N[C@H](Cc1ccccc1)C(=O)N[C@H](CC(C)C)C(=O)N[C@H](CCCCN)C(=O)N[C@H](CCCCN)C(=O)N[C@H](C)C(=O)N[C@H](CCCCN)C(=O)N[C@H](CCCCN)C(=O)N[C@H](Cc1ccccc1)C(=O)NCC(=O)N[C@H](CCCCN)C(=O)N[C@H](C)C(=O)N[C@H](Cc1ccccc1)C(=O)N[C@@H](C(=O)N[C@H](CCCCN)C(=O)N[C@@H](C(=O)N[C@H](CC(C)C)C(=O)N[C@H](CCCCN)C(=O)N[C@H](CCCCN)C(N)=O)[C@H](C)CC)C(C)C [(D)Pex, GiGkflkkakkfGkafvkilkk-CONH2 (SEQ ID NO: 74)]
- mice that did not survive to the end point ([2]; 10 mg/kg, 24 h end point): 3 out of 5
- H&E staining of kidney sections, pathological features ([2]; mice): significant damage
- H&E staining of spleen sections, pathological features ([2]; mice): significant damage
- serum alanine aminotransferase (ALT) level ([2]; mice): exceeding the reference range
- serum aspartate aminotransferase (AST) level ([2]; mice): exceeding the reference range
- serum blood nitrogen urea (BUN) level ([2]; mice): exceeding the reference range
- body condition (signs of distress) ([2]; mice, 10 mg/kg, observed 24 h): evident signs of distress

Molecule: Cyclo-(T-W-I-(Dab)-(Orn)-(Dab)-(Dab)-W-(Dab)-(Dab)-A-S-p-P) (SEQ ID NO: 88) [POL7080]
- fold activity masking in term of antibacterial activity on PAO1 [1]: 64 fold

B1: (ABD)2-(EEG)6-S12-(D)Pex: model ABD-AMP conjugate, Table 8, SEQ ID NO: 157 (conjugate)
chain: GLKEAKEKAIEELKKAGITSDYYFDLINKAKTVEGVNALKDEILKAGGGGSGGGGSGGGGSLKEAKEKAIEELKKAGITSDYYFDLINKAKTVEGVNALKDEILKAHHHHHHSPSTPPTPSPSTPPEEGEEGEEGEEGEEGEEGPLGLRSWGCGIGKFLKKAKKFGKAFVKILKK
modifications: MISC_FEATURE - Chemically linked by a (DBCO-Maleimide)-Azidoacetyl; SITE 155 MISC_FEATURE - D amino acid; MISC_FEATURE - D amino acid
- H&E staining of kidney sections, pathological features ([2]; mice): not observed
- H&E staining of spleen sections, pathological features ([2]; mice): not observed
- serum alanine aminotransferase (ALT) level ([2]; mice): within the normal reference range
- serum aspartate aminotransferase (AST) level ([2]; mice): within the normal reference range
- serum blood nitrogen urea (BUN) level ([2]; mice): within the normal reference range
- tolerability / body condition ([2]; mice, 5 and 10 mg/kg AMP equivalent doses, observed 24 h): well tolerated up to the highest dose tested with no signs of distress
- fold higher minimum inhibitory concentration (MIC) of intact conjugate ([1]; intact conjugate versus thrombin pre-activated, PAO1, MIC = lowest treatment concentration that fully inhibits bacteria growth): 64 fold
- cell toxicity on HepG2, after activation by target protease (Thrombin) ([3]; thrombin pre-cleaved): restored
- cell toxicity on HepG2, intact conjugate ([3]; without protease activation): natively inactive
- masking of hemolysis (mouse red blood cells): effectively mask
- masking of mammalian toxicity on L929 fibroblasts (L929 fibroblasts): effectively mask

B2: (ABD)2-(EEG)6-S12-(D)Pex-Cy7: Cy7-labelled model ABD-AMP conjugate, Table 8, SEQ ID NO: 158 (conjugate)
chain: GLKEAKEKAIEELKKAGITSDYYFDLINKAKTVEGVNALKDEILKAGGGGSGGGGSGGGGSLKEAKEKAIEELKKAGITSDYYFDLINKAKTVEGVNALKDEILKAHHHHHHSPSTPPTPSPSTPPEEGEEGEEGEEGEEGEEGPLGLRSWGCGIGKFLKKAKKFGKAFVKILKKK
modifications: Cy7 label; MISC_FEATURE - Chemically linked -(DBCO-Maleimide)-Azidoacetyl; SITE 155 MISC_FEATURE - D amino acid; MISC_FEATURE - D amino acid; SITE 176 MISC_FEATURE - linked to (Cy7)
- fold increase in area-under-the-concentration-time curve (AUC), circulation ([4]; compared to the free (D)Pex-Cy7 control): 91 fold
- AUC fold higher active AMP delivered to the lungs ([4]; mouse, in vivo): 2.6 fold
- AUC fold reduction of active AMP exposure, kidneys ([4]; mouse, in vivo): 1.2 fold
- AUC fold reduction of active AMP exposure, liver ([4]; mouse, in vivo): 3.6 fold
- AUC fold reduction of active AMP exposure, spleen ([4]; mouse, in vivo): 1.6 fold
- fold reduction of active AMP exposure, kidneys, at equivalent lung exposure ([4]; mouse, in vivo): 3.1 fold
- fold reduction of active AMP exposure, liver, at equivalent lung exposure ([4]; mouse, in vivo): 9.3 fold
- fold reduction of active AMP exposure, spleen, at equivalent lung exposure ([4]; mouse, in vivo): 4.2 fold
